Experimental data published in US10683486B2, “Methods for producing hepatocytes” (BioLamina AB, priority 2015, dated 2020).

Columns and labels:
Type in all cases: cell-based, human
[1] = test system: MAN11 derived hepatocytes; assay: Protein secretion (ELISA) and CYP p450 activity of MAN11 derived hepatocytes; details: day 18, n=3, versus MG
Experimental: MAN11 cells, another GMP grade cell line, were plated on three different substrates. The first substrate was Matrigel® (MG), and served as a control. The second substrate was coated with 5 micrograms per square centimeter (μg/cm^2) of laminin-521 (LN-521). […] The cells were then differentiated according to the Cameron protocol.
FIG. 17 is a set of four bar graphs. […] The second row of two graphs show the metabolic function of CYP p450 activity on day 18 for CYP1A2 and CYP3A activity. No significant differences were observed across the three matrices.
Looking at both Example 4 and Example 5, the MAN11 and MAN12 cells differentiated efficiently on all three substrates, with the majority of cells (>80%) expressing albumin and CYP3A, as detected by immunostaining.

[2] = test system: H9 hESCs differentiating to hepatocyte like cells; assay: Quantitative PCR gene expression during differentiation; details: days 0, 3, 9, 18; normalized to GAPDH
Experimental: Total RNA was isolated from cells using Trizol reagent. RNA quantification and quality was assessed using a Nanodrop system. The Life Technologies Superscript III reverse transcription kit was employed to prepare the cDNA. Quantitative PCR was performed with Taqman Fast Advance Mastermix and the appropriate primer pair and analysed using a Roche LightCycler 480 Real-Time PCR System. Gene expression was normalized to glyceraldehyde 3-phosphate dehydrogenase (GAPDH) and expressed as relative expression over the control sample (hESC on Day 0 of differentiation). Quantitative PCRs were performed in triplicate. Data analysis was performed using Roche LightCycler 480 Software (version 1.5). […] Cell extracts were collected during differentiation and mRNA assessed on days 0, 3, 9, and 18. […] It should be remembered that the “LN-511” label refers to a substrate containing a blend of laminin-521 and laminin-111 at a 1:3 weight ratio. FIG. 3 is a set of six bar graphs showing gene expression during differentiation on the three substrates (MG, LN-521, and LN-511) for six different genes whose name is above each graph. Relative gene expression was normalized to the housekeeping gene GAPDH. […] Endoderm associated gene FOXA2 peaked on all substrates on day 3 and then decreased thereafter. […] HNF4A was detected at day 3 on all substrates, but by day 9, significant differences in expression patterns emerged.

[3] = test system: hESC-derived hepatocytes; assay: Biliary efflux of CDFDA; details: 2 μM CDFDA for 30 minutes; versus the MG substrate
Experimental: To determine whether these cells were capable of biliary efflux, cells were treated with 5(6)-carboxy-2′,7′-dichlorofluorescein diacetate (CDFDA), which was metabolised to fluorescent CDF and effluxed by multidrug resistance associated protein 2 (MRP2). hESC-derived hepatocytes were incubated with 2 μM of 5(6)-carboxy-2′,7′dichlorofluorescein diacetate (CDFDA) for 30 minutes. Cultures were then washed with ice-cold PBS containing calcium and magnesium. Cells were either collected for imaging or retained for quantification of efflux. For fluorescent quantification, hepatic maturation was replaced and cells incubated at 37 degrees Celsius for 30 minutes. The efflux of CDFDA from cells into media was measured by fluorescence spectroscopy at […] using a FLUOStar Omega multi-mode microplate reader.
The results are shown in the bottom row (C) of photomicrographs.

[4] = test system: stem cell derived hepatocytes; assay: CYP3A and CYP1A2 activity using pGlo technology; details: days 16-26
Experimental: Given that cell organisation and cell division are important factors in hepatocyte function, hepatocyte metabolic capacity in vitro was studied. Stem cell derived hepatocytes were first examined for cytochrome P450 expression using well characterised antisera. CYP3A and CYP1A2 activity were measured from days 16-26 using pGlo technology. CYP activity was expressed as relative light units (RLU) per milliliter of media per milligram of protein. Levels of significance were measured by student t-test.
All of the cells expressed high levels of each marker on each substrate.

LN-521: substrate coated with 5 μg/cm^2 of laminin-521, the protein formed by joining α5, β2 and γ1 chains
Albumin secretion [1]: signicantly increased | alpha fetoprotein (AFP) secretion [1]: significant reduction | alpha fetoprotein (AFP) secretion ([1]; listed as LN-512): significantly reduced foetal protein secretion | AFP gene expression over time [2]: peaking on day 9 then decreasing at day 18 | HNF4A gene expression over time [2]: highest on day 9, decreasing by day 18 | biliary efflux [3]: more active biliary efflux | CYP1A2 activity compared with MG control [4]: significantly greater than it was on the control
